Experimental data from IntAct's records for PubMed 25363763.

B1: Cell adhesion molecule CEACAM1 (Homo sapiens), P13688 (parent)
chain: MGHLSAPLHRVRVPWQGLLLTASLLTFWNPPTTAQLTTESMPFNVAEGKEVLLLVHNLPQQLFGYSWYKGERVDGNRQIVGYAIGTQQATPGPANSGRETIYPNASLLIQNVTQNDTGFYTLQVIKSDLVNEEATGQFHVYPELPKPSISSNNSNPVEDKDAVAFTCEPETQDTTYLWWINNQSLPVSPRLQLSNGNRTLTLLSVTRNDTGPYECEIQNPVSANRSDPVTLNVTYGPDTPTISPSDTYYRPGANLSLSCYAASNPPAQYSWLINGTFQQSTQELFIPNITVNNSGSYTCHANNSVTGCNRTTVKTIIVTELSPVVAKPQIKASKTTVTGDKDSVNLTCSTNDTGISIRWFFKNQSLPSSERMKLSQGNTTLSINPVKREDAGTYWCEVFNPISKNQSDPIMLNVNYNALPQENGLSPGAIAGIVIGVVALVALIAVALACFLHFGKTGRASDQRDLTEHKPSVSNHTQDHSNDPPNKMNEVTYSTLNFEAQQPTQPTSASPSLTATEIIYSEVKKQ

Variants of: B1
Conditions: with havr2_human HAVCR2, Q8TDQ0

N76A was tested. Which “effect of a mutation on the interaction” value did it give?
The value was “decreasing interaction strength”.

Which “effect of a mutation on the interaction” value does the source give for Q78L here?
Its value is “decreasing interaction strength”.

Which “effect of a mutation on the interaction” value does the source give for G81A here?
The value was “disrupting interaction strength”.

Q123H was tested. Which “effect of a mutation on the interaction” value did it give?
Its value is “decreasing interaction strength”.
